Experimental data from WO2016008851A1 (dated 2016).
Numbering of substitutions follows the chain as printed.

B1: 36C2 (recombinant chimeric antibody: mouse 36C2 variable domains, human IgG1 constant domains) (antibody, V domains shown)
VH: QVQLQQSGAELARPGTSLKMSCKATGYTFTNYWIAWVKQRPGYGLEWIGSIFPGGDYTNYNEKFKGKATLTADTSSSTSYMQLSSLTSEDSAIYYCTRPYYSNYGHFDYWGQGTTLTVSS
VL: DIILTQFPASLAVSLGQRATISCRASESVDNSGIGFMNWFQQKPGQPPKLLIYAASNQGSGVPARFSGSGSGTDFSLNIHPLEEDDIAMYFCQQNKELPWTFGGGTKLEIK
notes: also called chimeric antibody 36C2
B2: 36C2 (original hybridoma antibody) (antibody, V domains shown)
VH: B1 VH
VL: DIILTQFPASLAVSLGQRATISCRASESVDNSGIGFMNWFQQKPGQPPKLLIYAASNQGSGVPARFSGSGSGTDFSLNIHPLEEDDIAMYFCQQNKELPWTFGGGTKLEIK
B3: Antibody A1 (antibody, V domains shown)
VH: QVQLVQSGAEVKKPGASVKVSCKATGYTFTNYWIAWVKQAPGQGLEWMGSIFPGGDYTNYNEKFKGKVTMTRDTSTSTSYMELSSLRSEDTAVYYCARPYYSNYGHFDYWGQGTLVTVSS
VL: EIVLTQSPATLSLSPGERATLSCRASESVDNSGIGFMNWYQQKPGQAPKLLIYAASNQGSGIPARFSGSGSGTDFTLTISRLEPEDFAMYYCQQNKELPWTFGGGTKLEIK
B4: Antibody A3 (antibody, V domains shown)
VH: B3 VH with N31D, K38R, K67R, V93I
VL: B3 VL with V3I, S7F, L21I, K49R, M89V, G104Q
B5: Antibody A4 (antibody, V domains shown)
VH: B3 VH with N31D, K38R, K67R
VL: B3 VL with K49R, M89V, G104Q
B6: Antibody B1 (antibody, V domains shown)
VH: EVQLVQSGAEVKKPGASVKVSCKASGFSFTGYYMHWVRQAPGQGLEWVGLIIPHNDYTVNNQKFKGRVTMTRDTSTSTAYMELSSLRSEDTAVYYCARSDYYGAMDYWGQGTLVTVSS
VL: EIVMTQSPATLSVSPGERATLSCRASQNIGTSIHWYQQKPGQAPRLLIKYASNSIYGIPARFSGSGSGTEFTLTISSLQSEDIAVYYCQQGASWPPFTFGQGTKLEIK
B7: Antibody B4 (antibody, V domains shown)
VH: B6 VH
VL: B6 VL with N53D, I55K, Y56D
B8: Antibody B3 (antibody, V domains shown)
VH: B6 VH
VL: B6 VL with N53D, I55V

biological target: T1, recombinant human IL-1B (human, UniProt P01584 117-269); test: Kinexa, solution equilibrium titration of hIL-1B against 10 pM antibody; mean ± SEM (N = 3)
T1 construct: also called rec. human IL-1B; hIL-1B

| Kd [nM] | Binder |
| --- | --- |
| 0.00556 | B1 |

biological target: recombinant mouse IL-1B (mouse, UniProt P10749 118-269); test: cell-based or functional assay
Sequence (P10749 118-269 limits assumed): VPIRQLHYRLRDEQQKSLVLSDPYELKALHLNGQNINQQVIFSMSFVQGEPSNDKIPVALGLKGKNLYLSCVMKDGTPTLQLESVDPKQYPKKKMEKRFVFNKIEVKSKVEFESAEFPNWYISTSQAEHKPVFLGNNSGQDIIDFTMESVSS

| IC50, mouse IL-1 B-induced KC release, mouse endothelial bEnd3 cells stimulated with 15 pM recombinant mouse IL-1 B [nM] | IC50, rec. mouse IL-1 B, HEK blue [nM] | IC90, rec. mouse IL-1 B, HEK blue [nM] | Binder |
| --- | --- | --- | --- |
| 0.5 | – | – | B2 |
| – | 1.14 | 3.25 | B3 |
| – | 0.998 | 3.64 | B4 |
| – | 1.08 | 3.98 | B5 |

biological target: Endogenous human IL-1B (THP1 supernatants) (human, UniProt P01584 117-269); test: cell-based or functional assay

| IC50, Endogenous human IL-1 B (THP1 supernatants), HEK blue [nM] | IC90, Endogenous human IL-1 B (THP1 supernatants), HEK blue [nM] | Binder |
| --- | --- | --- |
| 0.003 | 0.096 | B1 |
| 0.003 | 0.068 | B6 |
| 0.007 | 0.091 | B7 |
| 0.001 | 0.075 | B8 |
| 0.009 | 0.15 | B3 |
| 0.008 | 0.246 | B4 |
| 0.036 | 0.262 | B5 |

biological target: T1, recombinant human IL-1B; test: cell-based or functional assay

| IC50, rec. human IL-1 B, HEK blue [nM] | IC50, rec. human IL-1 B, MRC-5 (IL-6 production) [nM] | IC90, rec. human IL-1 B, HEK blue [nM] | IC90, rec. human IL-1 B, MRC-5 (IL-6 production) [nM] | Binder |
| --- | --- | --- | --- | --- |
| 0.017 | 0.007 | 0.15 | 0.044 | B1 |
| 0.013 | 0.013 | 0.11 | 0.11 | B6 |
| 0.018 | 0.018 | 0.098 | 0.098 | B7 |
| 0.008 | 0.008 | 0.257 | 0.257 | B8 |
| 0.033 | 0.01 | 0.329 | 0.131 | B3 |
| 0.042 | 0.013 | 0.34 | 0.162 | B4 |
| 0.04 | 0.016 | 0.495 | 0.125 | B5 |

biological target: recombinant cynomolgus IL-1B (cynomolgus, UniProt P79182 117-268, limits assumed); test: cell-based or functional assay
Sequence (P79182 117-268 limits assumed): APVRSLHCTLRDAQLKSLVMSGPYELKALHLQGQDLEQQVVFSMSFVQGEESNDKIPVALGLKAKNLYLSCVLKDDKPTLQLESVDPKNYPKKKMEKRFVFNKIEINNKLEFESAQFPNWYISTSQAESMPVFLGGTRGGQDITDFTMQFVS

| IC50, rec. cyno IL-1 B, HEK blue [nM] | IC90, rec. cyno IL-1 B, HEK blue [nM] | Binder |
| --- | --- | --- |
| 0.014 | 0.154 | B1 |
| 0.013 | 0.127 | B6 |
| 0.02 | 0.101 | B7 |
| 0.014 | 0.154 | B8 |
| 0.03 | 0.167 | B3 |
| 0.023 | 0.236 | B4 |
| 0.026 | 0.205 | B5 |

biological target: T1, recombinant human IL-1B; test: Kinexa

| Kd [nM] | Binder |
| --- | --- |
| < 0.01 | B1 |
